This is an account of results in patent US20250340661A1, “ANTI CD40 ANTIBODY, ANTIGEN BINDING FRAGMENT AND MEDICAL USE THEREOF” (Jiangsu Hengrui Pharmaceuticals Co., Ltd., priority 2021, published 2025).

One may read the Kd as the constant that tells how readily two partners part at equilibrium. As a reminder, the koff is the first-order rate constant of dissociation. As usually defined, the kon is the rate constant with which the complex forms. As usually defined, the EC50 is the concentration needed to bring the measured effect to its halfway point. High values mean lower potency in that assay, low ones higher potency in that assay.

In test [1] the target is human CD40 on the cell surface (human) (UniProt P25942). Kind of test: cell-based or functional assay.
Sequence of human CD40 on the cell surface (human) (P25942 21-277): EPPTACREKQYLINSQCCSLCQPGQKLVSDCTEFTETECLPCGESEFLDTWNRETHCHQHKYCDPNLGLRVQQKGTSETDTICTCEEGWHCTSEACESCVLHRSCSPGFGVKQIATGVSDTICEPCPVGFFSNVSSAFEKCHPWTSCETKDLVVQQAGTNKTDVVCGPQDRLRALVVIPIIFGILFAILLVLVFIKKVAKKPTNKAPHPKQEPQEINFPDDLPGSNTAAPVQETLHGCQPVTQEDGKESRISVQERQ
The target in test [2] is his-tagged human CD40 (h-CD40-his) recombinant protein (human) (UniProt P25942). Kind of test: SPR (Biacore), antibody captured on anti-human Fc chip, His-tagged CD40 as analyte, 1:1 model. In general terms: SPR reads the build-up and loss of mass on a sensor chip optically.
Sequence of his-tagged human CD40 (h-CD40-his) recombinant protein (human) (P25942 21-193 limits assumed): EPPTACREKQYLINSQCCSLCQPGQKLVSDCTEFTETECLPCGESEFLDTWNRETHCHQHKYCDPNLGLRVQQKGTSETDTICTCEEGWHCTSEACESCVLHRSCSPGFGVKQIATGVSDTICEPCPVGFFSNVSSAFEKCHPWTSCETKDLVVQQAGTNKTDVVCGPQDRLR
The target in test [3] is human CD40 on the cell surface (human) (UniProt P25942). Kind of test: flow cytometry on Raji cells, AF647 anti-human IgG detection.
Test [4] has the same target. Kind of test: flow cytometry on Raji cells, Alexa Fluor 488 anti-human IgG (H+L) detection. (In general: Flow cytometry measures light scatter and fluorescence of single cells or particles in a stream.)

“anti-CD40 antagonistic antibody CFZ533 (iscalimab)”: in test [1], the B cell activation assay, CD19+CD69+ % IC50 amounted to 0.14 nM; the B cell activation assay, CD19+CD69+ % Maximum inhibition rate was determined as 95%; the B cell activation assay, CD19+CD69+ MFI IC50 amounted to 0.07 nM; the B cell activation assay, CD19+CD69+ MFI Maximum inhibition rate was found to be 110%. In test [1], the IC50 for the inhibition of CD40 reporter gene cell activity (Assay 1) was 0.36 nM; the IC50 for the inhibition of CD40 reporter gene cell activity (Assay 2) is 0.35 nM; the IC50 in DC cell activation assay system, CD80 MFI was 1.19 nM; the IC50 in DC cell activation assay system, CD86 MFI was determined as 1.93 nM. Besides, in test [1], the IC50 in DC cell activation assay system, IL-12/23 p40 was determined as 0.68 nM; the IC50 in DC cell activation assay system, TNFα worked out at 0.35 nM; the reporter gene cell activity IC50 (HEK-Blue CD40L cells, SEAP) was found to be 0.272 nM. Further, in test [2], the dissociation constant Kd came out at 0.205 nM, the koff is 0.000141 s⁻¹ and the kon was found to be 688000 M⁻¹ s⁻¹. This substance also had an EC50 in test [3] of 2.41 nM. In test [4], this substance returned an EC50 of 1.01 nM.
